According to patent US7989466B2, “Methods to inhibit or augment an inflammatory response” (Cambridge Enterprise Limited, priority 1999, dated 2011):
Like-named read-outs stand apart in the source and are kept apart here. Positions of bridges follow the written chain, without caps; N, C: chain ends. Non-standard residues stand in square brackets, D forms with d. No end group written: not given here.

How the values were obtained:
[1] = tested on: MCP-1 induced THP-1 migration; assay: THP-1 trans-well migration assay, MCP-1 as chemoattractant; format: cell-based, human; details: for EC50: Homo sapiens
How it was run: (§1)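 5×10^4 THP-1 cells with serially diluted peptide in upper chamber, 5 µm filter, recombinant human chemokine 50 ng/ml (5.9 nM) in lower chamber. Incubated 4 h at 37 °C. Migrated cells counted by MTT staining, A595 read against a THP-1 standard curve.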

[2] = target: T1, short splice variant D2 dopamine receptor (Homo sapiens, UniProt P14416); assay: Dopamine receptor membrane binding (3H-Spiperone); details: 100 μM highest concentration tested; read-out: ED50 for competition of spiperone binding to short splice variant D2 dopamine receptor
T1 construct: purchased RBI/Sigma D-179
Experimental: For dopamine receptor binding, membranes (D-179, RBI/Sigma) are diluted into binding buffer (75 mM Tris pH 7.4, 12.5 mM MgCl2 and 2 mM EDTA). For example, 10 μl of membranes are diluted in 500 μl of binding buffer (i.e., 1:50 dilution), which is aliquoted into labelled tubes. Cold competitor or test competitor is added, (e.g., 5 μl of 100× stock solution; 5 μl of 1 mM haloperidol solution (H-100, RBI/Sigma in DMSO). Radioligand is then added (3H-Spiperone, TRK 818, Amersham, 250 μCi in 250 μl, 10.5 μM at 95 Ci/mmol). For competition studies, 0.5 nM is used. A 100× stock (i.e., 50 nM) is made by diluting the commercial stock 1:210 in binding buffer, and 5 μl is added to every tube. Control tubes have radioligand but no membranes. The mixtures are vortexed, then spun very briefly. The mixtures are then incubated for 1 hour at 27° C. in a water bath. The mixture is filtered through GF/C filters over a vacuum. Each filter is pre-soaked in polyethyleneimine (0.3% in water; add 1 ml of 10% stock (P-261; RBI/Sigma) to 33 ml of MilliQ water). The tubes are washed with 2-3 ml of wash buffer (50 mM Tris pH 7.4) and the wash filtered. The filters are then rinsed with 3×5 ml of wash buffer, air dried, placed in a scintillation vial and 4.5 ml of scintillant added. The activity on the filter is then determined.

α2-adrenoceptors = assay: α2-adrenoreceptor membrane binding (3H-RS-79948-197)
CCR5 = target: T2, CCR5 (Homo sapiens, UniProt P51681); assay: Scatchard analysis of labeled RANTES binding to CCR5 HOS cells; details: 4° C., 2 hours, read-out: affinity of RANTES binding sites
T2 construct: host or cells: HOS cells
Experimental: To establish the kinetics of labeled RANTES binding to CCR5, CCR5 cells and their parental line were exposed to labeled RANTES at 0.05 nM in the absence or presence of a 500-fold excess of unlabeled RANTES. Binding was performed at either 4° C. or room temperature for various periods between 30 minutes and 4 hours. All data was collected in triplicate. Equilibrium was achieved slightly quicker at room temperature than 4° C., and that in both cases binding was complete by 2 hours (FIG. 22A). […] Based on this experiment, all binding experiments were done at 4° C. for 2 hours.
A Scatchard analysis was performed under the conditions determined to represent equilibrium binding. The purpose of this experiment was to estimate the number of high affinity binding sites (CCR5 receptors) on the cell surface, since the full Scatchard analysis is performed under conditions where the binding was limited by availability of binding sites, not by number of molecules RANTES added. The result indicated about 80,000 binding sites per cell on the parental line and about 200,000-400,000 binding sites per cell on the high expressing CCR5 line. Using this information, the conditions necessary to perform a full 12-point Scatchard analysis at equilibrium, limited by binding site number, were calculated. […]

CCR5/CXCR4 = assay: Affinity for CCR5/CXCR4; format: binding; details: read-out: affinity constant for CCR5/CXCR4
gp120 = details: ns = not significantly different from control; >100 = ED50 not determined
[3] = tested on: MIP1α induced THP-1 migration; assay: THP-1 trans-well migration assay, MIP1α as chemoattractant; format: cell-based, human; details: ns = not significantly different from control
How it was run: as §1

HIV = format: cell-based; details: ns = not significantly different from control
[4] = tested on: SDF-1α induced THP-1 migration; assay: THP-1 trans-well migration assay, SDF-1α as chemoattractant; format: cell-based, human; details: ns = not significantly different from control
How it was run: as §1

[5] = target: T3, Duffy Antigen Receptor for Chemokines (DARC) (Homo sapiens, UniProt Q16570); assay: DARC binding: competition with 125I-MCP-1 on red blood cells
T3 sequence (Q16570 1-336): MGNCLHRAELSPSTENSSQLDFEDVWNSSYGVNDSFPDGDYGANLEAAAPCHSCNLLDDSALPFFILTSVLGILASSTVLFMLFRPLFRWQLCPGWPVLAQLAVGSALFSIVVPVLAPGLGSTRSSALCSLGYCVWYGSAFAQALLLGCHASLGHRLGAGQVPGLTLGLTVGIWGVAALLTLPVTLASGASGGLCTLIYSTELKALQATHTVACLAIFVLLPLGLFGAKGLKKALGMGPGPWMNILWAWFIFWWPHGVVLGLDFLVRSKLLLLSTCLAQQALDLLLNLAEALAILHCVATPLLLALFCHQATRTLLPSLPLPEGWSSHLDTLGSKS

[6] = rat, in vivo
[7] = mouse, in vivo, sc

T2 sequence (P51681 whole entry): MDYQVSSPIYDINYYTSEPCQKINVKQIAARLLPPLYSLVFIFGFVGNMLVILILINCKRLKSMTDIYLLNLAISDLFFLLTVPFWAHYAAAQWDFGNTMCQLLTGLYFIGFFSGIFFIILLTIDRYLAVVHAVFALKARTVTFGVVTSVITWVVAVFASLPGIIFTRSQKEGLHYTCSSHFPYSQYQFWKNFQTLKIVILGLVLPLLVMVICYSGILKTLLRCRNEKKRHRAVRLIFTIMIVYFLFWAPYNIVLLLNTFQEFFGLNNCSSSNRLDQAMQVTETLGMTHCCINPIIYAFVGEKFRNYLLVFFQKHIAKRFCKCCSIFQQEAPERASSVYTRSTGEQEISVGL
T1 sequence (P14416 1-414 isoform P14416-2): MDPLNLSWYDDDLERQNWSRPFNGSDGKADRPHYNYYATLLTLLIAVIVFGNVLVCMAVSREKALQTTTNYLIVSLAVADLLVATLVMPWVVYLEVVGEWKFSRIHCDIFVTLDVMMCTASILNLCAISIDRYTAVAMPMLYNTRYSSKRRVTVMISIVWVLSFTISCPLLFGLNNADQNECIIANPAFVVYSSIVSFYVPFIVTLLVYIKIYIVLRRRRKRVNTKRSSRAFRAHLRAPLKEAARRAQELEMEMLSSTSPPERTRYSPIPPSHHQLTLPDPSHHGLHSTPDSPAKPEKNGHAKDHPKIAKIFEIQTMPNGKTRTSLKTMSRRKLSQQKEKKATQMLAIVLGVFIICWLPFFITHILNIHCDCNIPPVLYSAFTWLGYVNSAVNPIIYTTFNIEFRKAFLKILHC

For `O=C1CCC(N2C(=O)c3ccccc3C2=O)C(=O)N1` (stereo not drawn) [Thalidomide, reference compound], the “activity in the MCP-1 induced THP-1 migration assay, in words” value [1] was “at 100 μM also inhibited THP-1 migration induced by MCP-1”, the EC50 ([1]; THP-1, agent with the cells in the upper compartment, n.s. = no statistically significant inhibition (p > 0.05), read-out: ED50 versus MCP-1, inhibition of THP-1 migration) was ~50000 nM and the IC50 [2] was > 100000 nM.

In the case of `NC(=O)C1C(O)CCC2CN3CCc4c([nH]c5ccccc45)C3CC21` (stereo not drawn) [Y-II, Yohimban-17-amide], the “selectivity for chemokine inhibition of alpha-adrenoreceptor binding” value (α2-adrenoceptors) is reported as 1,500 fold and the EC50 ([1]; THP-1, read-out: ED50 versus MCP-1 induced chemotaxis of THP-1) is reported as 0.5 nM.

In the case of RANTES, the Kd (CCR5) is reported as ~1 nM.

For “Vaekpcksstirrys (V[dA][dE][dK][dP][dC][dK][dS][dS][dT][dI][dR][dR][dY][dS]) [LRD peptide 2(1-15)[MCP-1]]”, the Kd (CCR5/CXCR4) was ≤ 100 nM, the “gp120 ED-50” value (gp120) was 3 µM and the “MCP-1 ED-50” value ([1]; ns = not significantly different from control) was “ns”. For the same compound, the “MIPIa ED-50” value [3] was “ns”, the “% virus inhibition” value (HIV) was 72% and the “SDF1a ED-50” value [4] was “ns”. For the same compound, the “decrease in Duffy binding relative to the LFL peptide” value [5] was ~100 fold and the “association (affinity) constant for DARC” value ([5]; red blood cells) was 25 µM.

With “^3H-CRD-L-Leu4Ile11Cys13 peptide 3(3-12)[MCP-1]: diastereomer of CRD-Leu4Ile11Cys13 peptide 3(3-12)[MCP-1] with L-leucine instead of D-leucine ([dC][dQ][dI][dW][dK][dQ][dK][dP][dD]L[dC]-NH2; disulfide 1-11; also: 3H-labelled, site not given here)” the A [6] was “A: 48.88 μg/mL”, the AUC [6] was 31430 ng·h/mL and the B [6] was “B: 63.64 μg/mL”. The Maximal concentration [6] was 1,710 ng mL^−1, the Maximal concentration/dose [6] was 0.000017 and the Vd [6] was 0.36 L/kg. The “dose accounted for in the 25 tissues and organs assayed at 3 hours post injection” value [6] was “about 11 % i.d”, the “dose excreted in urine over the first 2 hours” value [6] was > 80 % i.d and the “injected radioactivity in the urine with a mass consistent with the intact, cyclized structure” value [6] was > 80%. For the same compound, the “serum concentration at 30 minutes” value [6] was 591 ng/g, the “share of the total counts in the unwashed cell pellet at 10 minutes” value [6] was < 12% and the α [6] was “α: 9.59”. For the same compound, the β [6] was “β: 2.42”, the “dose eliminated in the urine over the first 4 hours” value ([6]; iv) was 86.6+/−16.5 % i.d and the “injected dose present in blood by four hours post injection” value ([6]; iv) was “about 0.1%”. For the same compound, the “serum concentration at 10 minutes post injection, females” value ([6]; iv) was 1238 ± 138 ng/mL, the “serum concentration at 10 minutes post injection, males” value ([6]; iv) was 1141 ± 283 ng/mL and the “serum level at 10 minutes, females” value ([6]; iv) was 12.45±1.39 % of the injected dose. The “serum level at 10 minutes, males” value ([6]; iv) was 14.38±3.46 % i.d, the Elimination half-life ([6]; iv, 100 ug) was 11.4 min and the “alpha-phase T1/2” value ([6]; iv, 100 ug) was 4.2 min. The “beta-phase T1/2” value ([6]; iv, 100 ug) was 17.4 min, the “dose remaining in the blood by 2 hours” value ([6]; iv, 2 h) was “less than 1 % i.d” and the “activity in the MCP-1 induced THP-1 migration assay, in words” value [1] was “retained functional activity”. For the same compound, the “average serum concentration at 30 minutes post injection” value [7] was 503 ng/g.
